Experiments:
Type in all cases: physicochemical
[1] = Solubilization of composition 1 judged by absorbance and emission spectra
Description: A composition comprising the fluorophore labelled receptor-targeting peptide conjugate ICG-Glu-Glu-AE105 (called composition 1 below) is soluble in DMSO in concentrations up to 20 mg/ml with a peak spectral absorption at 800 nm similar to indocyanine green (ICG) currently used in the clinic for visual assessment of vessels, blood flow and related tissue perfusion, fig. A.
An aqueous formulation of composition 1 of 1.0 mg/ml has been developed according to the present invention, using excipients suitable for pharmaceutical formulation development.
A. Excitation was conducted at 775 nm.
Further Explanation of the Figs. A-D A. Absorbance and emission spectrum of FG001 dissolved in DMSO and PBS at 1.0 mg/ml. Excitation wavelength: 775 nm. Analytical samples for absorbance measurement were further diluted 200-fold and 400-1000-fold for emission spectra. B. Absorbance spectrum of FG001 dissolved in 1) 10 mM sodium phosphate, 45 mg/ml mannitol, pH 7.4, 2) 10 mM sodium phosphate, 45 mg/ml mannitol, 1% Polysorbate 20, pH 7.4 and 3) PBS, 0.2 g/ml HBC. Analytical samples for absorbance measurement were further diluted 200-fold and 400-1000-fold for emission spectra C. […] Excitation wavelength: 775 nm. Analytical samples for absorbance measurement were further diluted 200-fold and 400-1000-fold for emission spectra

[2] = Long term storage stability, visual inspection and pH; settings: for pH: reconstituted
Description: (§1) The long term stability of composition 1 at a concentration of 1.0 mg/ml was evaluated as a lyophilizate in one formulation comprising 10 mM sodium phosphate, 26 mg/ml mannitol, 9.0 mg/ml glycine, 0.025% Polysorbate 20, pH 7.4 Composition 1 was weighed into the formulation buffer and pH was adjusted to 7.4 using sodium hydroxide or hydrochloric acid. The bulk formulation was sterile filtered through suitable sterile filters and filled into 6R vials. The vials were placed with stoppers in a lyophilizer and lyophilized using a standard program. Following lyophilization all vials were capped, visual inspected and stored protected from light at 5° C., 25° C./60% RH or 40° C./75% RH for up to 9 months
(§2) At the selected timepoint, a vial is removed from the stability chamber for visual inspection of the lyophilizate and water content determination. Another vial is reconstituted with water for injection prior to analyzing the corresponding liquid formulation for purity, pH and visual appearance.

[3] = Long term storage stability, water content of lyophilizate by Karl Fisher titration
Description: as §1, §2
The water content of the lyophilizate was determined by Karl Fisher titration according to Ph. Eur. 2.5.32.

[4] = Long term storage stability of lyophilizate, purity by RP-HPLC; settings: for Purity, main peak following storage at 5° C. / Purity, main peak following storage at 25° C./60% RH / Purity, main peak following storage at 40° C./75% RH: 780 nm
Description: as §1, §2
RP-HPLC to detect purity of reconstituted composition 1: Mobile phase A was composed of purified water/acetonitrile (80/20 v/v) with 5 mM ammonium acetate and mobile phase B was composed of purified water/acetonitrile (10/90 v/v) with 5 mM ammonium acetate. A Waters XBridge BEH Peptide, 3.5 μm, 130Å, 4.6×150 mm column was used. Flow rate was set to 1.0 mL/min,detection was at a wavelength of 780 nm, the column running temperature was 45° C. The sample cooler temperature was set at 5° C. and the sample injection load was 10 μg.

[5] = storage at 25° C./60% RH, 0 months
[6] = storage at 25° C./60% RH, 1 months
[7] = storage at 25° C./60% RH, 3 months
[8] = storage at 25° C./60% RH, 6 months
[9] = storage at 25° C./60% RH, 9 months
[10] = Example 4 lyophilizate, 0 months
[11] = Example 4 lyophilizate, 1 months
[12] = Example 4 lyophilizate, 3 months
[13] = Example 4 lyophilizate, 6 months
[14] = Example 4 lyophilizate, 9 months

## CC(C)C[C@H](NC(=O)[C@H](Cc1ccc(O)cc1)NC(=O)C(CCCNC(=N)N)NC(=O)C(CO)NC(=O)C(Cc1ccccc1)NC(=O)[C@H](CC1CCCCC1)NC(=O)C(CC(=O)O)NC(=O)C(CCC(=O)O)NC(=O)C(CCC(=O)O)NC(=O)CCCCCN1\C(=C/C=C/C=C/C=C/C2=[N+](CCCCS(=O)(=O)[O-])c3ccc4ccccc4c3C2(C)C)C(C)(C)c2c1ccc1ccccc21)C(=O)N[C@@H](Cc1c[nH]c2ccccc12)C(=O)N[C@@H](CO)C(=O)O (stereo partly drawn) [composition 1, ICG-Glu-Glu-AE105]
[1]; 10 mM sodium phosphate, 45 mg/ml mannitol, pH 7.4
  peak absorption: shifted towards the peak absorption at 800 nm
[1]; DMSO, read-out: soluble in DMSO in concentrations
  solubility: ≤ 20 mg/mL
[1]; in DMSO
  peak spectral absorption: 800 nm
[1]; phosphate buffer saline, 1.0 mg/ml
  spectral absorption in the range from 700 nm to 825 nm: clear double peak
[1]; phosphate buffer saline, 1.0 mg/ml, excitation 775 nm
  emission spectrum: significantly lower fluorescent peak at 800 nm
[1]; tested concentration 1.0 mg/ml
  solubility in phosphate buffer saline: not soluble
[2]; storage at 5° C., 0 months
  pH: 7.4
[2]; storage at 5° C., 1 months
  pH: 7.3
[2]; storage at 5° C., 3 months
  pH: 7.4
[2]; storage at 5° C., 6 months
  pH: 7.3
[2]; storage at 5° C., 9 months
  pH: 7.4
[2]; [5]
  pH: 7.4
[2]; [6]
  pH: 7.3
[2]; [7]
  pH: 7.4
[2]; [8]
  pH: 7.3
[2]; [9]
  pH: 7.4
[2]; up to 9 months storage
  pH, appearance of the lyophilizate and clarity of reconstituted liquid formulation: remains unchaged
[3]; following 9 months storage at 25° C./60% RH
  residual water content: around 2%
[3]; storage at 5° C., 0 months
  Residual water: 1.0%
[3]; storage at 5° C., 1 months
  Residual water: 1.2%
[3]; storage at 5° C., 3 months
  Residual water: 1.8%
[3]; storage at 5° C., 6 months
  Residual water: 1.7%
[3]; storage at 5° C., 9 months
  Residual water: 1.6%
[3]; [5]
  Residual water: 1.0%
[3]; [6]
  Residual water: 1.8%
[3]; [7]
  Residual water: 1.7%
[3]; [8]
  Residual water: 1.7%
[3]; [9]
  Residual water: 1.9%
[4]; Example 4 lyophilizate (mannitol/glycine/0.025% Polysorbate 20), 0 months
  Purity, main peak following storage at 5° C.: 96.6 area %
[4]; [10]
  Purity, main peak following storage at 25° C./60% RH: 96.6 area %
  Purity, main peak following storage at 40° C./75% RH: 96.6 area %
[4]; [11]
  Purity, main peak following storage at 5° C.: 96.2 area %
  Purity, main peak following storage at 25° C./60% RH: 96.2 area %
  Purity, main peak following storage at 40° C./75% RH: 96.0 area %
[4]; [12]
  Purity, main peak following storage at 5° C.: 96.5 area %
  Purity, main peak following storage at 25° C./60% RH: 96.6 area %
  Purity, main peak following storage at 40° C./75% RH: 95.9 area %
[4]; [13]
  Purity, main peak following storage at 5° C.: 96.3 area %
  Purity, main peak following storage at 25° C./60% RH: 95.6 area %
  Purity, main peak following storage at 40° C./75% RH: 93.9 area %
[4]; [14]
  Purity, main peak following storage at 5° C.: 96.2 area %
  Purity, main peak following storage at 25° C./60% RH: 96.2 area %
[4]; selected formulation, storage conditions 5° C. and 25° C./60% RH
  time shown to be stable, judged by the purity determination: up to 9 months
